Target: T1, Hif-1α CAD (Homo sapiens, UniProt Q16665)
T1 chain: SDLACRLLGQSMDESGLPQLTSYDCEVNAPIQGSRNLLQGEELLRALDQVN
Assay: stopped-flow

Kd: 3.4 nM
B1: CBP TAZ1 (protein)
chain: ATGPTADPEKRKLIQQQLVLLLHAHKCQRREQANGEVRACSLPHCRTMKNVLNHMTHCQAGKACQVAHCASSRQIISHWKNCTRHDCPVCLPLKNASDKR

From publication PMC5959852 (2018)
